These results are taken from paper PMC2871011.

This experiment addresses low-molecular-weight fibrinogen fraction I-9 isolated from plasma (human) (UniProt P02671). Nature of the experiment: co-purification.

“latent TGF-β1 (TGF-β1 with its latency-associated protein) (from UniProt P01137 30-278) (complex)” registered a fold less latent TGF-β than in fraction I-2 of 8 fold.
